According to the supplement of paper PMC10567573:

B1: TCEB3B (parent)
chain: STTALGDKQRKANESKGTRESWDS

Variants of: B1
Assay: protein stability index of a GFP-peptide fusion (GPS, HEK-293T) (PSI 1-6); higher = more stable
Conditions: c terminus: a fixed tail appended
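Note: lentivirally expressed fusions sorted by FACS into six bins by GFP to DsRed ratio, PSI derived from sequencing read proportions per bin multiplied by bin number.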

Protein stability index: each site, then its substitutions
E14: F 3, A 3.15, H 3.88, T 3.42, I 3.81, Y 2.95, M 3.65, Q 3.54, D 3.89, W 2.73, S 3.82, G 3.85, P 3.19, R 3.61, L 3.9, N 4.06, K 3.33, V 3.34, C 2.77
S15: W 3.72, P 4.34, K 4, H 3.93, R 3.65, D 4.93, Q 4.03, N 4.24, Y 3.64, I 3.71, F 3.94, T 3.38, M 3.98, L 3.52, E 4.97, A 4.69, C 3.58, G 4.2, V 3.38
A4: N 4.18, M 3.54, C 3.86, F 3.56, D 4.14, L 3.49, T 4.46, Q 3.9, S 3.81, K 3.78, G 3.75, P 3.88, I 3.65, W 3.62, Y 3.36, V 3.96, E 4.14, R 3.34, H 3.82
L5: V 4.08, F 3.29, K 4.37, D 4.22, E 4.57, T 4.63, G 4.11, R 4.03, M 3.88, Y 3.37, A 4.37, W 3.64, N 4.14, Q 4.57, H 4.25, P 4.37, I 3.17, C 3.44, S 4.25
D7: K 4.05, T 3.52, V 3.6, G 3.83, W 3.39, R 3.88, H 3.58, Y 3, I 3.23, C 3.57, F 3.24, N 3.43, S 3.43, A 3.49, M 3.2, E 4.36, P 3.5, L 2.88, Q 3.15
Q9: M 4.08, V 3.85, K 4.09, R 3.52, I 3.72, G 3.62, W 2.45, Y 3.64, E 3.71, N 3.47, H 4.26, L 3.67, T 4.14, D 3.92, F 3.29, P 3.53, C 3.37, A 3.38, S 3.71
N13: Q 4.1, A 3.91, D 4.64, P 3.83, L 3.67, T 3.78, V 4.12, W 3.09, F 3.67, S 4.14, I 3.59, R 3.12, C 3.83, E 4.87, H 3.35, Y 3.22, K 3.65, G 3.45, M 3.7
K11: W 3.99, Q 3.79, N 4.39, Y 4, M 3.86, C 4.53, V 4.07, F 3.79, E 4.72, G 3.88, T 4.22, D 4.32, I 4.02, L 3.65, S 4.03, P 4.23, R 3.57, A 4.3, H 4.29
K16: V 4.53, D 4.96, W 3.13, A 4.45, S 4.42, C 2.97, P 4.29, E 5, Y 3.6, H 4.14, I 3.95, F 3.8, T 4.24, Q 4.24, N 3.97
